Experiments:
Test in all cases: holdup assay
Design in all cases: key: below the threshold = too weak to quantify, mostly under pKd 3.1 to 4
ARHGEF11, O15085 = biological target: T1, ARHGEF11, O15085
T1 sequence (O15085 42-136, limits assumed, looked up): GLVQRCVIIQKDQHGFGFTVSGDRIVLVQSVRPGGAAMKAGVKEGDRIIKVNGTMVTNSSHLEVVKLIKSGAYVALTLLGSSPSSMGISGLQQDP

CARD11, Q9BXL7 = biological target: T2, CARD11, Q9BXL7
T2 sequence (Q9BXL7 662-765, limits assumed, looked up): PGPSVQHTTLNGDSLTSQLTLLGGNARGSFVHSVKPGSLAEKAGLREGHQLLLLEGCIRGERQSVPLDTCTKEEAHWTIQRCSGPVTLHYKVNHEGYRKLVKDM

DLG5_1, Q8TDM6 = biological target: DLG5_1, Q8TDM6
Chain of DLG5_1, Q8TDM6 (Q8TDM6 617-713): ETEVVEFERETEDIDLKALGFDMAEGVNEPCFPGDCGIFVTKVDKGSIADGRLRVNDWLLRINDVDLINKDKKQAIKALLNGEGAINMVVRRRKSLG

DVL3, Q92997 = biological target: T3, DVL3, Q92997
T3 sequence (Q92997 244-331, limits assumed, looked up): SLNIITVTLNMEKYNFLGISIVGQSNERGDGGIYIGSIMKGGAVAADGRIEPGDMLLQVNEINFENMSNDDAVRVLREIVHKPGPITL

FRMPD1, Q5SYB0 = biological target: T4, FRMPD1, Q5SYB0
T4 sequence (Q5SYB0 52-145, limits assumed, looked up): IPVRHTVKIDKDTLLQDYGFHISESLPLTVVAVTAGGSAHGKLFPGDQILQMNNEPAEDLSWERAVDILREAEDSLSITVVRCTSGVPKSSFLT

GORASP1, Q9BQQ3 = biological target: GORASP1, Q9BQQ3
Chain of GORASP1, Q9BQQ3 (Q9BQQ3 1-208): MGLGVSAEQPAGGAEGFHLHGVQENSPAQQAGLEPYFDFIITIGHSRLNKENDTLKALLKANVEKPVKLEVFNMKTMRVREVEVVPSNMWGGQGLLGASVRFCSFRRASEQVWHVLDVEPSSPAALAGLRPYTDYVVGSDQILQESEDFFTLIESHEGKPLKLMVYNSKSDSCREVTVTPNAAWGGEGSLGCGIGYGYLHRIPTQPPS

GRID2IP_2, A4D2P6 = biological target: GRID2IP_2, A4D2P6
Chain of GRID2IP_2, A4D2P6 (A4D2P6 272-370): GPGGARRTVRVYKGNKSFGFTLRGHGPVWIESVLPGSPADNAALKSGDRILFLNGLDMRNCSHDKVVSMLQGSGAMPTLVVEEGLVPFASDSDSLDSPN

GRIP1_4, Q9Y3R0 = biological target: T5, GRIP1_4, Q9Y3R0
T5 sequence (Q9Y3R0 467-571, limits assumed, looked up): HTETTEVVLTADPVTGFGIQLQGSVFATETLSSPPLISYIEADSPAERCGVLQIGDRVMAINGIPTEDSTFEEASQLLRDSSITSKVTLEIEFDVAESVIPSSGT

GRIP2_3, Q9C0E4 = biological target: GRIP2_3, Q9C0E4
Chain of GRIP2_3, Q9C0E4 (Q9C0E4 238-339): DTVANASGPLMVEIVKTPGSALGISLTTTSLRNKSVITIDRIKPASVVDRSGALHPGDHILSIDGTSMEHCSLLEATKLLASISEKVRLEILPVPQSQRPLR

GRIP2_6, Q9C0E4 = biological target: GRIP2_6, Q9C0E4
Chain of GRIP2_6, Q9C0E4 (Q9C0E4 648-740): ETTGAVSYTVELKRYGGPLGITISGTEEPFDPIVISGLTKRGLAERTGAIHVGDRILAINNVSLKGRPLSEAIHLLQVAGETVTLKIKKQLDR

HTRA4, P83105 = biological target: T6, HTRA4, P83105
T6 sequence (P83105 378-476, limits assumed, looked up): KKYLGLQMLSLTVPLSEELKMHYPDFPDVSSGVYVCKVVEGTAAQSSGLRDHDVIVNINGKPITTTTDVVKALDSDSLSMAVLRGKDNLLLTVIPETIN

Inadl_3, Q8NI35 = biological target: Inadl_3, Q8NI35
Chain of Inadl_3, Q8NI35 (Q8NI35 359-469): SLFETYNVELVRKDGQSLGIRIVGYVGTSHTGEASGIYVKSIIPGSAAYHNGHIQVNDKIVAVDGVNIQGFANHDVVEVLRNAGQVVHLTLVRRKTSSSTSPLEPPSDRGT

LIMK2, P53671 = biological target: LIMK2, P53671
Chain of LIMK2, P53671 (P53671 143-248): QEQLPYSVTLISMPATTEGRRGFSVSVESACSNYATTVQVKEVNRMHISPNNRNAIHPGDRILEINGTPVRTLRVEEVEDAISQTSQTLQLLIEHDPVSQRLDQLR

LNX1_3, Q8TBB1 = biological target: LNX1_3, Q8TBB1
Chain of LNX1_3, Q8TBB1 (Q8TBB1 500-596): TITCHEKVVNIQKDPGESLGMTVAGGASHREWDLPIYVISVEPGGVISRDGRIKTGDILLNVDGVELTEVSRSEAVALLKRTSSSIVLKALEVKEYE

LNX2_2, Q8N448 = biological target: T7, LNX2_2, Q8N448
T7 sequence (Q8N448 334-432, limits assumed, looked up): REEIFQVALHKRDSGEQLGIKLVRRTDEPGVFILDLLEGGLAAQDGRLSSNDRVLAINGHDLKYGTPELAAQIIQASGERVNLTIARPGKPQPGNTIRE

LNX2_3, Q8N448 = biological target: T8, LNX2_3, Q8N448
T8 sequence (Q8N448 463-564, limits assumed, looked up): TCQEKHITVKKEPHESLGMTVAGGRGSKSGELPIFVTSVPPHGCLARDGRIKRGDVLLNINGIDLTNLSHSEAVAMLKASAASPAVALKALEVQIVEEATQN

MAGI1_2, Q96QZ7 = biological target: MAGI1_2, Q96QZ7
Chain of MAGI1_2, Q96QZ7 (Q96QZ7 456-580): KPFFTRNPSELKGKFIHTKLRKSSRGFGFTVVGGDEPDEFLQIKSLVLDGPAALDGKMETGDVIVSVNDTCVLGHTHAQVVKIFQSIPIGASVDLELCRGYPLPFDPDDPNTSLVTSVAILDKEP

MAGI2_5, Q86UL8 = biological target: MAGI2_5, Q86UL8
Chain of MAGI2_5, Q86UL8 (Q86UL8 915-1017): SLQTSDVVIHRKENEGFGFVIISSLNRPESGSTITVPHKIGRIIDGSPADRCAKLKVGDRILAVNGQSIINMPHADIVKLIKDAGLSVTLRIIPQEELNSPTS

NHERF4_2, Q86UT5 = biological target: NHERF4_2, Q86UT5
Chain of NHERF4_2, Q86UT5 (Q86UT5 220-308): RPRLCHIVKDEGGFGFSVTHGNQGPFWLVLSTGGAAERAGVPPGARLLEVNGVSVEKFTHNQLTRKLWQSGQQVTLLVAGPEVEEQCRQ

NOS1, P29475 = biological target: NOS1, P29475
Chain of NOS1, P29475 (P29475 9-101): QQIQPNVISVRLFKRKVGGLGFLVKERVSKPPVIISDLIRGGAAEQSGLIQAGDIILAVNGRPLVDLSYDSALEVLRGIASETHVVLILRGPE

PARD3_3, Q8TEW0 = biological target: PARD3_3, Q8TEW0
Chain of PARD3_3, Q8TEW0 (Q8TEW0 582-685): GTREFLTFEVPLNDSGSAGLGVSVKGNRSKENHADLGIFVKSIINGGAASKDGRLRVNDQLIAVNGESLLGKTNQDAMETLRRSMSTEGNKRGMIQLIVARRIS

PDZD2_2, O15018 = biological target: T9, PDZD2_2, O15018
T9 sequence (O15018 329-429, limits assumed, looked up): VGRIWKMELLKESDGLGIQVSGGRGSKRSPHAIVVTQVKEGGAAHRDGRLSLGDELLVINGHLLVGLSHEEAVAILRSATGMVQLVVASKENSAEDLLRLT

PDZRN3_1, Q9UPQ7 = biological target: T10, PDZRN3_1, Q9UPQ7
T10 sequence (Q9UPQ7 244-349, limits assumed, looked up): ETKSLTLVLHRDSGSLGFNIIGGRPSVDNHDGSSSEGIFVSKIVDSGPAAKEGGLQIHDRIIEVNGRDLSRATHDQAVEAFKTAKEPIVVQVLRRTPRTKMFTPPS

PTPN13_1, Q12923 = biological target: T11, PTPN13_1, Q12923
T11 sequence (Q12923 1088-1188, limits assumed, looked up): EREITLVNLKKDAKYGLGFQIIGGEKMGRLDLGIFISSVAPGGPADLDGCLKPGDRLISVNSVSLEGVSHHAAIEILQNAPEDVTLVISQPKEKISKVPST

RAPGEF6, Q8TEU7 = biological target: T12, RAPGEF6, Q8TEU7
T12 sequence (Q8TEU7 525-625, limits assumed, looked up): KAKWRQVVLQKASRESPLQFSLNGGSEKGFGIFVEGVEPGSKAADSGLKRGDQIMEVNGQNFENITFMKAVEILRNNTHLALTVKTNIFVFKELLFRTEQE

SNX27, Q96L92 = biological target: SNX27, Q96L92
[1] = plain residues with an end cap or a label only (N-terminal biotin on a linker: ado-ado)
[2] = plain residues with an end cap or a label only (N-terminal biotin on a linker: ahx)

Q: MHIQEKGFHV [EPHA6, Q9UF33] was tested. Which pKd (ARHGEF11, O15085; [1]) did it give?
A: The pKd was “below the threshold”.

Q: And the pKd (CARD11, Q9BXL7; [1])?
A: The pKd was “below the threshold”.

Q: What about the pKd (DLG5_1, Q8TDM6; [1]) of the same binder?
A: The pKd was “below the threshold”.

Q: And the pKd (DVL3, Q92997; [1])?
A: The pKd was “below the threshold”.

Q: What about the pKd (FRMPD1, Q5SYB0; [1]) of the same binder?
A: Its pKd is “below the threshold”.

Q: And the pKd (GORASP1, Q9BQQ3; [1])?
A: The pKd was “below the threshold”.

Q: What about the pKd (GRID2IP_2, A4D2P6; [1]) of the same binder?
A: Its pKd is “below the threshold”.

Q: And the pKd (GRIP1_4, Q9Y3R0; [1])?
A: The pKd was “below the threshold”.

Q: What about the pKd (GRIP2_3, Q9C0E4; [1]) of the same binder?
A: The pKd was “below the threshold”.

Q: What about the pKd (GRIP2_6, Q9C0E4; [1]) of the same binder?
A: The pKd was 3.59.

Q: And the pKd (HTRA4, P83105; [1])?
A: The pKd was 3.49.

Q: What about the pKd (Inadl_3, Q8NI35; [1]) of the same binder?
A: The pKd was “below the threshold”.

Q: What about the pKd (LIMK2, P53671; [1]) of the same binder?
A: Its pKd is “below the threshold”.

Q: And the pKd (LNX1_3, Q8TBB1; [1])?
A: Its pKd is “below the threshold”.

Q: What about the pKd (LNX2_2, Q8N448; [1]) of the same binder?
A: The pKd was 4.09.

Q: And the pKd (LNX2_3, Q8N448; [1])?
A: The pKd was “below the threshold”.

Q: And the pKd (MAGI1_2, Q96QZ7; [1])?
A: The pKd was “below the threshold”.

Q: What about the pKd (MAGI2_5, Q86UL8; [1]) of the same binder?
A: Its pKd is “below the threshold”.

Q: What about the pKd (NHERF4_2, Q86UT5; [1]) of the same binder?
A: Its pKd is “below the threshold”.

Q: What about the pKd (NOS1, P29475; [1]) of the same binder?
A: Its pKd is 3.62.

Q: And the pKd (PARD3_3, Q8TEW0; [1])?
A: Its pKd is “below the threshold”.

Q: And the pKd (PDZD2_2, O15018; [1])?
A: The pKd was “below the threshold”.

Q: What about the pKd (PDZRN3_1, Q9UPQ7; [1]) of the same binder?
A: Its pKd is “below the threshold”.

Q: What about the pKd (PTPN13_1, Q12923; [1]) of the same binder?
A: Its pKd is “below the threshold”.

Q: What about the pKd (RAPGEF6, Q8TEU7; [1]) of the same binder?
A: Its pKd is “below the threshold”.

Q: What about the pKd (SNX27, Q96L92; [1]) of the same binder?
A: The pKd was “below the threshold”.

Q: Which results are given for VLYPREGTEV [FOXI1, Q12951]?
A: pKd (ARHGEF11, O15085; [1]): 4.54; pKd (CARD11, Q9BXL7; [1]): below the threshold; pKd (DLG5_1, Q8TDM6; [1]): below the threshold; pKd (DVL3, Q92997; [1]): below the threshold; pKd (FRMPD1, Q5SYB0; [1]): below the threshold; pKd (GORASP1, Q9BQQ3; [1]): below the threshold; pKd (GRID2IP_2, A4D2P6; [1]): 4.11; pKd (GRIP1_4, Q9Y3R0; [1]): below the threshold; pKd (GRIP2_3, Q9C0E4; [1]): below the threshold; pKd (GRIP2_6, Q9C0E4; [1]): below the threshold; pKd (HTRA4, P83105; [1]): 4.29; pKd (Inadl_3, Q8NI35; [1]): 3.72; pKd (LIMK2, P53671; [1]): below the threshold; pKd (LNX1_3, Q8TBB1; [1]): below the threshold; pKd (LNX2_2, Q8N448; [1]): 4.22; pKd (LNX2_3, Q8N448; [1]): below the threshold; pKd (MAGI1_2, Q96QZ7; [1]): 3.95; pKd (MAGI2_5, Q86UL8; [1]): 4.09; pKd (NHERF4_2, Q86UT5; [1]): below the threshold; pKd (NOS1, P29475; [1]): 4.05; pKd (PARD3_3, Q8TEW0; [1]): below the threshold; pKd (PDZD2_2, O15018; [1]): 4.93; pKd (PDZRN3_1, Q9UPQ7; [1]): 4.46; pKd (PTPN13_1, Q12923; [1]): below the threshold; pKd (RAPGEF6, Q8TEU7; [1]): below the threshold; pKd (SNX27, Q96L92; [1]): 4.31

Q: Which results are given for EKQAKGDTEF [CACYBP, Q9HB71]?
A: pKd (ARHGEF11, O15085; [2]): below the threshold; pKd (CARD11, Q9BXL7; [2]): below the threshold; pKd (DLG5_1, Q8TDM6; [2]): below the threshold; pKd (DVL3, Q92997; [2]): below the threshold; pKd (FRMPD1, Q5SYB0; [2]): below the threshold; pKd (GORASP1, Q9BQQ3; [2]): below the threshold; pKd (GRID2IP_2, A4D2P6; [2]): below the threshold; pKd (GRIP1_4, Q9Y3R0; [2]): below the threshold; pKd (GRIP2_3, Q9C0E4; [2]): below the threshold; pKd (GRIP2_6, Q9C0E4; [2]): below the threshold; pKd (HTRA4, P83105; [2]): below the threshold; pKd (Inadl_3, Q8NI35; [2]): below the threshold; pKd (LIMK2, P53671; [2]): below the threshold; pKd (LNX1_3, Q8TBB1; [2]): below the threshold; pKd (LNX2_2, Q8N448; [2]): below the threshold; pKd (LNX2_3, Q8N448; [2]): below the threshold; pKd (MAGI1_2, Q96QZ7; [2]): below the threshold; pKd (MAGI2_5, Q86UL8; [2]): below the threshold; pKd (NHERF4_2, Q86UT5; [2]): below the threshold; pKd (NOS1, P29475; [2]): below the threshold; pKd (PARD3_3, Q8TEW0; [2]): below the threshold; pKd (PDZD2_2, O15018; [2]): below the threshold; pKd (PDZRN3_1, Q9UPQ7; [2]): below the threshold; pKd (PTPN13_1, Q12923; [2]): below the threshold; pKd (RAPGEF6, Q8TEU7; [2]): below the threshold; pKd (SNX27, Q96L92; [2]): 3.68

Q: What does the source list for SLNANEVEWF [RNF130, Q86XS8]?
A: pKd (ARHGEF11, O15085; [1]): 3.96; pKd (CARD11, Q9BXL7; [1]): below the threshold; pKd (DLG5_1, Q8TDM6; [1]): below the threshold; pKd (DVL3, Q92997; [1]): 4.48; pKd (FRMPD1, Q5SYB0; [1]): below the threshold; pKd (GORASP1, Q9BQQ3; [1]): 4.08; pKd (GRID2IP_2, A4D2P6; [1]): below the threshold; pKd (GRIP1_4, Q9Y3R0; [1]): below the threshold; pKd (GRIP2_3, Q9C0E4; [1]): below the threshold; pKd (GRIP2_6, Q9C0E4; [1]): below the threshold; pKd (HTRA4, P83105; [1]): 3.81; pKd (Inadl_3, Q8NI35; [1]): below the threshold; pKd (LIMK2, P53671; [1]): 3.5; pKd (LNX1_3, Q8TBB1; [1]): below the threshold; pKd (LNX2_2, Q8N448; [1]): 3.7; pKd (LNX2_3, Q8N448; [1]): below the threshold; pKd (MAGI1_2, Q96QZ7; [1]): below the threshold; pKd (MAGI2_5, Q86UL8; [1]): 3.51; pKd (NHERF4_2, Q86UT5; [1]): below the threshold; pKd (NOS1, P29475; [1]): 4; pKd (PARD3_3, Q8TEW0; [1]): 5.28; pKd (PDZD2_2, O15018; [1]): 4.86; pKd (PDZRN3_1, Q9UPQ7; [1]): below the threshold; pKd (PTPN13_1, Q12923; [1]): 3.5; pKd (RAPGEF6, Q8TEU7; [1]): 3.61; pKd (SNX27, Q96L92; [1]): 3.94
